Consider three molecules from patent US8063008B2, “Enzymatic production of peracids using perhydrolytic enzymes” (E. I. du Pont de Nemours and Company, priority 2005, dated 2011).

Common to all, as to assay type: biochemical
Test [1] is described as follows: Enzymatic perhydrolysis of triacetin using a combination of lipase and proteases (Proteinase K, Pronase) at pH 4.0 and 6.5 (Example 10). To be noted: H2O2 500 mM, 1 mg lipase, 0.3 mg Proteinase K, 1.2 mg Pronase. How it is done: Reaction mixtures were prepared containing 1 mg lipase (ICR 101, ICR-110, or ICR-117, BioCatalytics, Pasadena, Calif.), 0.3 mg Proteinase K (T. album), and 1.2 mg of Pronase in 1.0 mL of 50 mM buffer (either sodium acetate/acetic acid buffer at pH 4.0, or potassium phosphate buffer at pH 6.5), additionally containing triacetin (250 mM) and hydrogen peroxide (500 mM). […] A portion of the filtered reaction samples was diluted 1:10 with dd water and analyzed for hydrogen peroxide, and the remaining portion of the sample was directly analyzed for peracid using the HPLC assay method (Table 11). Reactions were also run with lipase alone or protease(s) alone for comparison of peracetic acid concentrations produced without the combination of lipase and protease(s).

Test [2] can be described thus: Protease-catalyzed perhydrolysis of acetamide at pH 6.5 (Example 9). The conditions noted are these: pH 6.5, 500 mM H2O2, 1 mg protease. The method, then:
(§1) Into a 4-mL glass vial with stir bar was added 1 mg protease (Table 6) in 0.050 mL of 50 mM potassium phosphate buffer (pH 6.5), 0.900 mL of an aqueous mixture containing either a) acetamide (278 mM) in 50 mM potassium phosphate buffer (pH 6.5) or b) diacetamide (278 mM) in 50 mM potassium phosphate buffer (pH 6.5), and 0.052 mL 30% hydrogen peroxide (500 mM final concentration). […] A portion of the filtered reaction samples was diluted 1:10 with dd water and analyzed for hydrogen peroxide, and the remaining portion of the sample was directly analyzed for peracid using the HPLC assay method (Table 10).

Test [3] can be described thus: Protease-catalyzed perhydrolysis of acetamide at pH 4.0 (Example 6). To be noted: pH 4.0, 500 mM H2O2, 1 mg protease. The method, then:
as §1, with “sodium acetate/acetic acid” for “potassium phosphate”, “4.0),” for “6.5),”, “4.0)” for “6.5)”, “7).” for “10).”

Test [4] in a line: Protease-catalyzed perhydrolysis of diacetamide at pH 6.5 (Example 9). To be noted: pH 6.5, 500 mM H2O2, 1 mg protease. The method, then: as §1
Test [5] is described as follows: Protease-catalyzed perhydrolysis of diacetamide at pH 4.0 (Example 6). To be noted: pH 4.0, 500 mM H2O2, 1 mg protease. The method, then:
as §1, with “sodium acetate/acetic acid” for “potassium phosphate”, “4.0),” for “6.5),”, “4.0)” for “6.5)”, “7).” for “10).”

Test [6] can be described thus: Protease-catalyzed perhydrolysis of triacetin at pH 6.5 (Example 8). The conditions noted are these: pH 6.5, 500 mM H2O2, 1 mg protease. The method, then:
The analytical procedure described by U. Karst et al. (Anal. Chem., 69 (17):3623-3627 (1997)) was employed, as described herein, for analysis of product mixtures containing peracid and hydrogen peroxide. Briefly, the concentration of peracetic acid (PAA) in analyzed samples ranged from 0.025 mM-10 mM, and the concentration of H2O2 ranged from 0.075 mM-3 mM. Reaction mixtures containing peracid and/or hydrogen peroxide were, if necessary prior to analysis, diluted to produce a concentration of peracid or peroxide in these ranges. […] At the end of 30 minutes, 0.100 mL of 10 mM N,N-diethyl-m-toluamide (DEET, HPLC external standard) was added and the resulting solution analyzed by HPLC: Supelco Discovery C8 10-cm column with pre-column, 10-μL injection, UV detection at 225 nm, solvent A: acetonitrile, solvent B: deionized water, 1 mL/min gradient as follows: […]
Into a 4-mL glass vial with stir bar was added 1 mg protease (Table 6) in 0.050 mL of 50 mM sodium phosphate buffer (pH 6.5), 0.900 mL of an aqueous mixture containing triacetin (278 mM) in 50 mM phosphate buffer (pH 6.5), and 0.052 mL 30% hydrogen peroxide (500 mM final concentration). […] A portion of the filtered reaction samples was diluted 1:10 with dd water and analyzed for hydrogen peroxide, and the remaining portion of the sample was directly analyzed for peracid using the HPLC assay method (Table 9).

Test [7] can be described thus: Protease-catalyzed perhydrolysis of triacetin at pH 4.0 (Example 7). To be noted: pH 4.0, 500 mM H2O2, 1 mg protease. How it is done: Into a 4-mL glass vial with stir bar was added 1 mg protease (Table 6) in 0.050 mL of 50 mM sodium acetate/acetic acid buffer (pH 4.0), 0.900 mL of an aqueous mixture containing triacetin (278 mM) in 50 mM sodium acetate/acetic acid buffer (pH 4.0), and 0.052 mL 30% hydrogen peroxide (500 mM final concentration). […] A portion of the filtered reaction samples was diluted 1:10 with dd water and analyzed for hydrogen peroxide, and the remaining portion of the sample was directly analyzed for peracid using the HPLC assay method (Table 8).

Test [8] is described as follows: Enzymatic perhydrolysis of triacetin using a combination of lipase and Alcalase at pH 4.0 and 6.5 (Example 22). To be noted: H2O2 500 mM, 1 mg lipase, 20 μL Alcalase. How it is done:
Reaction mixtures were prepared containing 1 mg lipase (A “Amano” 12 (Amano), Validase AN (Valley Research), or ICR-110 (BioCatalytics)), and 20 μL Alcalase® (Novozymes) in 1.0 mL of 50 mM buffer (either sodium acetate/acetic acid buffer at pH 4.0, or potassium phosphate buffer at pH 6.5), additionally containing triacetin (250 mM) and hydrogen peroxide (500 mM). […] A portion of the filtered reaction samples was diluted 1:10 with dd water and analyzed for hydrogen peroxide, and the remaining portion of the sample was directly analyzed for peracid using the HPLC assay method (Table 27). Reactions were also run with lipase alone or Alcalase® alone for comparison of peracetic acid concentrations produced without the combination of lipase and Alcalase®.

The nature of test [9]: Enzymatic perhydrolysis of a mixture of diacetin (250 mM), triacetin (88 mM) and monoacetin (192 mM) using lipase and Alcalase at pH 4.0 and 6.5 (Example 23). To be noted: 1 mg lipase, 20 μL Alcalase. The method, then: Reaction mixtures were prepared containing 1 mg lipase (A “Amano” 12 (Amano), Validase AN (Valley Research), or ICR-110 (BioCatalytics)), and 20 μL Alcalase® (Novozymes) in 1.0 mL of 50 mM buffer (either sodium acetate/acetic acid buffer at pH 4.0, or potassium phosphate buffer at pH 6.5), additionally containing a mixture of diacetin (250 mM), triacetin (88 mM) and monoacetin (192 mM) and hydrogen peroxide (500 mM). […] A portion of the filtered reaction samples was diluted 1:10 with dd water and analyzed for hydrogen peroxide, and the remaining portion of the sample was directly analyzed for peracid using the HPLC assay method (Table 28). Reactions were also run with lipase alone or Alcalase® alone for comparison of peracetic acid concentrations produced without the combination of lipase and Alcalase®.

B1: Proteinase K, T. album: Proteinase K, T. album, Novagen 70663; a fungal subtilisin from Tritirachium album (protein, UniProt P06873 106-384, looked up)
Proteinase K: AAQTNAPWGLARISSTSPGTSTYYYDESAGQGSCVYVIDTGIEASHPEFEGRAQMVKTYYYSSRDGNGHGTHCAGTVGSRTYGVAKKTQLFGVKVLDDNGSGQYSTIIAGMDFVASDKNNRNCPKGVVASLSLGGGYSSSVNSAAARLQSSGVMVAVAAGNNNADARNYSPASEPSVCTVGASDRYDRRSSFSNYGSVLDIFGPGTSILSTWIGGSTRSISGTSMATPHVAGLAAYLMTLGKTTAASACRYIADTANKGDLSNIPFGTVNLLAYNNYQA
As to B1, in test [1] (pH 4.0, triacetin 250 mM), the “peracetic acid (ppm), 5 min” value amounted to 24 ppm and the “peracetic acid (ppm), 30 min” value was 7 ppm. In addition, in [1] (pH 6.5, triacetin 250 mM), the “peracetic acid (ppm), 5 min” value was 323 ppm and the “peracetic acid (ppm), 30 min” value stood at 669 ppm. Besides, in [2], the “acetamide (250 mM) peracetic acid (ppm), 5 min” value worked out at 270 ppm and the “acetamide (250 mM) peracetic acid (ppm), 30 min” value amounted to 214 ppm. Further, in [3], the “acetamide (250 mM) peracetic acid (ppm), 5 min” value amounted to 34 ppm and the “acetamide (250 mM) peracetic acid (ppm), 30 min” value was 49 ppm. In test [4], the “diacetamide (250 mM) peracetic acid (ppm), 5 min” value was 104 ppm and the “diacetamide (250 mM) peracetic acid (ppm), 30 min” value was 100 ppm.

B2: Papain: Papain, papaya latex, Sigma P3125 (protein, UniProt P00784 134-345, looked up)
Papain: IPEYVDWRQKGAVTPVKNQGSCGSCWAFSAVVTIEGIIKIRTGNLNEYSEQELLDCDRRSYGCNGGYPWSALQLVAQYGIHYRNTYPYEGVQRYCRSREKGPYAAKTDGVRQVQPYNEGALLYSIANQPVSVVLEAAGKDFQLYRGGIFVGPCGNKVDHAVAAVGYGPNYILIKNSWGTGWGENGYIRIKRGTGNSYGVCGLYTSSFYPVKN
Regarding B2, the “diacetamide (250 mM) peracetic acid (ppm), 5 min” value in test [5] (5 min) is listed as 135 ppm; in [4], 342 ppm. The “diacetamide (250 mM) peracetic acid (ppm), 30 min” value in test [5] (30 min) amounted to 172 ppm; in test [4], 187 ppm. Further, the “triacetin (250 mM) peracetic acid (ppm), 5 min” value in test [6] (5 min) was found to be 203 ppm; in test [7] (5 min), 85 ppm. Further, the results for the “triacetin (250 mM) peracetic acid (ppm), 30 min” value in test [6] (30 min) and in test [7] (30 min) were 142 ppm and 48 ppm, respectively. Also, the “acetamide (250 mM) peracetic acid (ppm), 5 min” value in test [2] is reported as 199 ppm; in test [3] it was 81 ppm. The “acetamide (250 mM) peracetic acid (ppm), 30 min” value stood at 157 ppm in test [2] and 105 ppm in test [3].

B3: Alcalase ®: Novozymes; subtilisin Carlsberg or subtilisin A from Bacillus licheniformis (protein, UniProt P00780 106-379, looked up)
Subtilisin Carlsberg: AQTVPYGIPLIKADKVQAQGFKGANVKVAVLDTGIQASHPDLNVVGGASFVAGEAYNTDGNGHGTHVAGTVAALDNTTGVLGVAPSVSLYAVKVLNSSGSGSYSGIVSGIEWATTNGMDVINMSLGGASGSTAMKQAVDNAYAKGVVVVAAAGNSGSSGNTNTIGYPAKYDSVIAVGAVDSNSNRASFSSVGAELEVMAPGAGVYSTYPTNTYATLNGTSMASPHVAGAAALILSKHPNLSASQVRNRLSSTATYLGSSFYYGKGLINVEAAAQ
For B3, the “peracetic acid (ppm), 5 min” value is given as 0 ppm in test [8] (pH 4.0, triacetin 250 mM); 180 ppm in test [8] (pH 6.5, triacetin 250 mM); 0 ppm in test [9] (pH 4.0, H2O2 500 mM); 110 ppm in test [9] (pH 6.5, H2O2 500 mM). The “peracetic acid (ppm), 30 min” value in test [8] (pH 4.0, triacetin 250 mM) came to 0 ppm; in [8] (pH 6.5, triacetin 250 mM), 330 ppm; in test [9] (pH 4.0, H2O2 500 mM) it was 20 ppm; in test [9] (pH 6.5, H2O2 500 mM) it was 210 ppm.
